Test results as given in the MegaScale stability set (Tsuboyama et al. 2023).

B1: EEHEE_rd3_1049 (parent)
chain: TTVKLGDIKVTFDNPEKAKKYAQKLAKIYQLTVHVHGDTIHVK

Variants of: B1
Assay: folding stability dG (cDNA display proteolysis); higher = more stable
Conditions: PBS, room temperature

Folding stability dG [kcal/mol] of substitutions, site by site:
N14: K 1.25 | M 1.2 | G 1.05 | C 2.02 | P 0.431 | S 2.12 | V 1.12 | T 1.98 | I 1.22 | W 1.34 | D 2.38 | L 1.32 | Y 1.05 | E 1.4 | R 1.26 | H 1.61 | A 1.18 | Q 1.25 | F 1.2
E16: K 1.91 | C 2.66 | I 1.98 | N 1.7 | A 1.94 | V 1.85 | P 0.35 | M 1.91 | F 1.9 | S 1.7 | G 1.54 | Y 1.9 | Q 1.89 | T 1.77 | R 1.82 | L 1.92 | W 1.93 | D 1.96 | H 1.8
F12: P 0.089 | L 0.617 | Y 0.563 | A 0.107 | H 0.172 | C 1.74 | N -0.055 | M 0.628 | T 0.094 | R 0.188 | W 0.742 | S -0.062 | D -0.148 | E 0.041 | Q 0.131 | G -0.438 | I 0.634 | V 0.419 | K 0.115
T2: M 1.65 | I 2.23 | R 1.03 | H 1.82 | P 0.739 | S 1.4 | V 2.12 | F 1.67 | K 1.26 | Y 1.72 | N 1.17 | L 1.51 | G 0.901 | W 1.6 | Q 1.28
K9: A 2.06 | Q 2.06 | Y 2.42 | R 2.23 | T 2.42 | W 2.47 | F 2.24 | G 1.25 | E 2.27 | N 1.76 | L 2.39 | D 1.28 | P 0.591 | I 2.46 | H 2.06 | S 2.43 | V 2.38 | M 2.34 | C 3.33
V10: N 0.575 | A 0.985 | T 1.12 | D 0.272 | L 2.08 | E 0.411 | P 0.26 | S 0.658 | F 2.35 | Y 1.95 | W 3.21 | H 1.06 | M 2 | G 0.275 | K 1.72 | C 2.92 | R 1.79 | I 2.48 | Q 0.914
K17: W 1.93 | R 2.02 | L 2.17 | Y 1.9 | V 2 | E 2.32 | D 2.45 | C 3.1 | H 2.02 | I 2 | F 1.84 | A 2.39 | S 2.05 | N 1.91 | P 0.853 | Q 2.21 | G 1.25 | T 2.15 | M 2.2
I8: W 3.22 | Y 2.87 | S 1.37 | G 0.616 | P 0.237 | L 2.19 | A 1.18 | R 1.94 | T 1.54 | E 0.747 | M 2.1 | D 0.538 | V 1.88 | F 2.95 | N 1.21 | C 3.42 | Q 1.28 | H 2.62 | K 1.83
K19: N 1.64 | G 0.985 | T 1.55 | F 2.93 | R 2.23 | L 3.31 | P -0.502 | C 3.38 | H 2.14 | S 1.49 | M 3.54 | D 0.873 | Q 1.89 | I 2.54 | E 1.47 | A 1.9
G6: F 2.02 | L 1.61 | A 1.24 | I 1.49 | K 1.41 | W 2.23 | R 1.76 | M 1.55 | E 0.771 | H 1.75 | S 1.05 | T 0.948 | P 0.61 | D 0.87 | Q 1.12 | Y 1.89 | N 1.45 | C 3.09 | V 1.2
V3: C 2.3 | N 0.593 | A 0.626 | T 0.665 | L 1.09 | H 0.671 | S 0.71 | W 0.663 | G 0.742 | Q 0.609 | Y 0.622 | M 0.732 | P 0.746 | E 0.57 | K 0.686 | F 0.742 | I 1.34 | D 0.577 | R 0.673
L5: G 0.536 | P 0.495 | F 2.71 | W 2.83 | K 0.76 | N 0.735 | D 0.531 | C 3.38 | S 0.683 | R 0.884 | V 2.08 | A 0.939 | H 1.59 | E 0.422 | Y 2.12 | M 2.24 | Q 0.604 | T 0.739 | I 2.79
D7: R 3.21 | C 3.56 | N 2.85 | V 2.52 | L 2.69 | M 2.63 | I 2.64 | F 2.83 | Q 2.5 | K 3.17 | Y 2.94 | H 2.79 | S 2.73 | P 2.31 | W 3.24 | A 2.6 | E 1.97 | T 2.56 | G 2.39
P15: M 2.1 | Y 2.53 | G 1.3 | A 2.09 | E 1.72 | K 1.78 | F 3.11 | T 1.4 | L 2.08 | V 1.96 | S 1.59 | H 2.04 | Q 1.65 | R 1.88 | I 2.01 | W 2.47 | D 1.16 | N 1.43
T11: K 2.06 | F 2.51 | H 2.31 | Q 1.88 | R 2.24 | S 1.77 | W 2.74 | N 1.65 | P 1.05 | M 2.15 | V 2.42 | Y 2.69 | E 1.58 | A 1.48 | I 2.33 | C 2.98 | D 1.08 | L 2.21 | G 0.999
K4: A 1.71 | F 2.4 | T 1.85 | Q 2.35 | I 3.17 | P 0.652 | E 1.6 | C 3.22 | W 2.76 | H 2.07 | V 2.91 | S 1.61 | M 2.47 | Y 2.5 | N 1.34 | R 2.18 | G 0.845 | L 2.47 | D 1.09
D13: P 1.58 | R 2.13 | V 1.89 | Y 1.85 | I 1.96 | W 2.01 | Q 2.1 | H 1.86 | L 2.08 | M 2.12 | G 1.69 | C 2.6 | N 1.98 | F 1.93 | K 2.2 | E 1.9 | A 2.11 | T 2.16 | S 2.25
A18: Q 0.175 | D -0.113 | S 0.232 | N 0.152 | L 0.902 | G 0.641 | T 0.288 | F 0.877 | H 0.152 | R 0.343 | I 0.682 | Y 0.624 | C 2.03 | K 0.046 | P -0.013 | M 0.64 | W 1.26 | V 0.492 | E -0.325
